The values that follow come from patent US20050239064A1 (published 2005).

Assay [1] has as its target T1, Drosophila Mastermind (Mam) tagged at its amino terminus with the Flag epitope, expressed from pcDNA3 in 293T … (Drosophila, UniProt P21519 1-1594).
T1 construct: Expressed inside transfected human 293T cells
The experiment in a line: co-expression in 293T cells, indirect immunofluorescence. The source says:
Mastermind and the entire intracellular domain of Drosophila Notch were co-expressed from pcDNA3 vectors (obtained from Invitrogen, Carlsbad, Calif.). Intracellular Notch was visualized with the 9C6 monoclonal antibody (Rebay, 1983, Thesis, Yale University) and a Cy-2-conjugated goat anti-mouse IgG secondary antibody. Flag epitope-tagged Mam was visualized with an anti-Flag polyclonal antibody and a Cy-5-conjugated goat anti-rabbit secondary antibody. Nuclei were counterstained with DAPI. In the absence of Mam, intracellular Notch is homogeneously distributed throughout the nucleoplasm; however, when co-expressed with Mam, intracellular Notch accumulates in nuclear bodies.

For assay [2], the target named is T2, truncated Mam protein (carboxy-terminal 32 amino acids of full-length Drosophila Mastermind deleted) fused to … (Drosophila, UniProt P21519 1-1562).
T2 construct: also called truncated Mam fusion protein
T2 sequence (P21519 other isoform, or with tags, fused parts or gaps limits assumed): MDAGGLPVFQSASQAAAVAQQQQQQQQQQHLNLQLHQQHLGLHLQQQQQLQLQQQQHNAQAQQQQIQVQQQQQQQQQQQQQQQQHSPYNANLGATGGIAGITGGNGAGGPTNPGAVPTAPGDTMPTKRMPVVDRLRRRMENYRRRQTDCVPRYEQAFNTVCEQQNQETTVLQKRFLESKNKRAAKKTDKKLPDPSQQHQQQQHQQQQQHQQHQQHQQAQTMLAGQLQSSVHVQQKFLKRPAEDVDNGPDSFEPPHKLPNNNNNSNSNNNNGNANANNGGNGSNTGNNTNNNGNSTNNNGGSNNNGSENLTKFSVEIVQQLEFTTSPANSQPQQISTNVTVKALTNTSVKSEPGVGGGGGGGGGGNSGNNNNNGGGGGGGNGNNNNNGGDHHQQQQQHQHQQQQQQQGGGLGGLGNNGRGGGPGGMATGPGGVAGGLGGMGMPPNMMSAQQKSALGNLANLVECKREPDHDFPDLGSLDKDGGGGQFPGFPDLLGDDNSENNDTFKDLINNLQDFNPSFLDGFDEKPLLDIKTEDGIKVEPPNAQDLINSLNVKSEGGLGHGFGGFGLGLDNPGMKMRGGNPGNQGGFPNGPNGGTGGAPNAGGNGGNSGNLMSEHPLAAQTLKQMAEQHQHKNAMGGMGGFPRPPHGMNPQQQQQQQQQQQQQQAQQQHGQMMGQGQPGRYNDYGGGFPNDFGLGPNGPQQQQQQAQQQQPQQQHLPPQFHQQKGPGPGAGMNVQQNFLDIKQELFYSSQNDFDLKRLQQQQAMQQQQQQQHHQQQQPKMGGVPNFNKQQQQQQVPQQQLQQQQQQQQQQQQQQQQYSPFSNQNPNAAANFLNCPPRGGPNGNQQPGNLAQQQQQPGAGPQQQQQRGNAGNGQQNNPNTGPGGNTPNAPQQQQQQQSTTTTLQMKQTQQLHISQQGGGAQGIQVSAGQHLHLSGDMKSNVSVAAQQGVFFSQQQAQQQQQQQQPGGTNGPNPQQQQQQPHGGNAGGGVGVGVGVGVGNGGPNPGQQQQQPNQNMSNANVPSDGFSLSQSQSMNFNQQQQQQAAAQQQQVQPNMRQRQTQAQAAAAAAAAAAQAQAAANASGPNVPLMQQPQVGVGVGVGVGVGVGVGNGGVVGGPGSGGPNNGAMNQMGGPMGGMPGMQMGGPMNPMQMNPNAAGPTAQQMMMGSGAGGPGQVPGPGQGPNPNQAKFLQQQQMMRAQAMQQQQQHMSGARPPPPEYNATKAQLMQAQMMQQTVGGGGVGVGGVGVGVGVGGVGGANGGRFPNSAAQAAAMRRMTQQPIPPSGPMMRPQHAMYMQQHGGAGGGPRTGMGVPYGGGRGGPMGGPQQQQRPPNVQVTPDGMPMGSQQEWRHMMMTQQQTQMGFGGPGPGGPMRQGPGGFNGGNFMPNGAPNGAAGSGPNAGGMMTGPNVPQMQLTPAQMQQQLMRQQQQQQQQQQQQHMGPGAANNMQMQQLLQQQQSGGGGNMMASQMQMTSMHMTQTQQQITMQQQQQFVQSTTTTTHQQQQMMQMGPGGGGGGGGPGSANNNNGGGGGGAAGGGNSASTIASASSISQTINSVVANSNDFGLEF
Kind of assay: yeast two-hybrid, lacZ reporter. The source says:
FIG. 13 is a graph showing Mam-Mip complex driven transcription in a two-hybrid analysis in yeast. The yeast strain EGY48 was co-transformed with a plasmid encoding a Mam-Gal4 DNA binding domain fusion protein and either a plasmid encoding Mip1, Mip30 or Mip6 fused to the E. coli B42 transactivation domain, or a control plasmid (pJG4-5). The DNA binding domain was derived from plasmid pEG202. […] In the presence of glucose, the expression of Mam is repressed and only a very low level of β-galactosidase activity is detected. In the presence of galactose, the expression of Mam is induced and a large increase in β-galactosidase activity is observed with those proteins that interact with Mam. Extracts were prepared and activity measured from equal number of cells.
To elucidate the function of Mam and its role in Notch signaling, proteins with which Mam interacts were identified. Complementary DNA encoding a truncated Mam protein, in which the carboxy-terminal 32 amino acids of full-length Mam were deleted, was fused to the Gal4 DNA-binding domain encoded by the yeast expression vector pEG202. A truncated Mam fusion protein was used because it elicited a lower autonomous transactivational response from yeast reporter genes than full-length Mam. […]

T1 sequence (P21519 other isoform, or with tags, fused parts or gaps): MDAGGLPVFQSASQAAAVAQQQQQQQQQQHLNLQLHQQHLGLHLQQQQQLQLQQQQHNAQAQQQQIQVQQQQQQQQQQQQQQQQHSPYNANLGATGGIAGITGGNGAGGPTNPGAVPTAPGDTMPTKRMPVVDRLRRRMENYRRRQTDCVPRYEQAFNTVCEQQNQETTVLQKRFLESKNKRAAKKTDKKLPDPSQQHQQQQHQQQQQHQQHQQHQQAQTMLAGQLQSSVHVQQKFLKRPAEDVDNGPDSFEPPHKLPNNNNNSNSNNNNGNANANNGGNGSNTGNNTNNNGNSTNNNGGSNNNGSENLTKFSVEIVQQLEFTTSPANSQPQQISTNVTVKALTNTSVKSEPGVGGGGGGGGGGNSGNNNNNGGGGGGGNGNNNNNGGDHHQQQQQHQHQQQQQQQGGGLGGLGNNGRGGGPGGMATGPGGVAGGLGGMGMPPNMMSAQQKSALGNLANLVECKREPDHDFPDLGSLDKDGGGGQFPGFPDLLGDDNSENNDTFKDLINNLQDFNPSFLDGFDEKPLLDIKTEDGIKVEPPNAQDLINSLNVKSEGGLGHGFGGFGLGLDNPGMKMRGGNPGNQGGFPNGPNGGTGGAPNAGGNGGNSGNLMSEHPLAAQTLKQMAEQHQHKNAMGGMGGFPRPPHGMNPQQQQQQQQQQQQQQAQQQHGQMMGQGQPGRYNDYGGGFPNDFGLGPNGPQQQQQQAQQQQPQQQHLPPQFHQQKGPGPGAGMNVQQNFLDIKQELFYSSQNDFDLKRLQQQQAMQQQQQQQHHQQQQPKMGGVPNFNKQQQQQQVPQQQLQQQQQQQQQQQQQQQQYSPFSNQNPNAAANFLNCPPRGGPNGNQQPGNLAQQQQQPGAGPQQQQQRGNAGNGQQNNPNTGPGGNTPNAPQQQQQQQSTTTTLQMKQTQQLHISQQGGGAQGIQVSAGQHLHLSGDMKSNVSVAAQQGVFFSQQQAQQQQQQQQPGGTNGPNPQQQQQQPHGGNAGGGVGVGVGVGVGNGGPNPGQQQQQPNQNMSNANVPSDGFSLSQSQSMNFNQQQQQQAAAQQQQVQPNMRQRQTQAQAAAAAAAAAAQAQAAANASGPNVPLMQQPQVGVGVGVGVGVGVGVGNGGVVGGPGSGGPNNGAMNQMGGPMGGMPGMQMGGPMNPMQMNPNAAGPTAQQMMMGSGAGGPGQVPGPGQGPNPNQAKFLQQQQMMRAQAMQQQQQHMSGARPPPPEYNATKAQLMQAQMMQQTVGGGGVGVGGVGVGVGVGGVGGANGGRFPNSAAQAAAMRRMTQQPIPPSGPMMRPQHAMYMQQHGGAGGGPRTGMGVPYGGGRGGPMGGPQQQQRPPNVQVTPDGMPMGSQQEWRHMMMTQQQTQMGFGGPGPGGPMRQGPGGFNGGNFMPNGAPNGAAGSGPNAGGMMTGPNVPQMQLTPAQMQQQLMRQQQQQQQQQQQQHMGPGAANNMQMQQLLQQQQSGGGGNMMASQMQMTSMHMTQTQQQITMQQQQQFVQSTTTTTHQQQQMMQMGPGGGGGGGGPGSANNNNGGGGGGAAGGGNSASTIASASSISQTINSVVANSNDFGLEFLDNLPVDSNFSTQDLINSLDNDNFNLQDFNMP

B1: entire intracellular domain of Drosophila Notch, expressed from pcDNA3 in 293T cells (receptor, UniProt P07207 1767-2703, looked up)
chain: QRKRAHGVTWFPEGFRAPAAVMSRRRRDPHGQEMRNLNKQVAMQSQGVGQPGAHWSDDESDMPLPKRQRSDPVSGVGLGNNGGYASDHTMVSEYEEADQRVWSQAHLDVVDVRAIMTPPAHQDGGKHDVDARGPCGLTPLMIAAVRGGGLDTGEDIENNEDSTAQVISDLLAQGAELNATMDKTGETSLHLAARFARADAAKRLLDAGADANCQDNTGRTPLHAAVAADAMGVFQILLRNRATNLNARMHDGTTPLILAARLAIEGMVEDLITADADINAADNSGKTALHWAAAVNNTEAVNILLMHHANRDAQDDKDETPLFLAAREGSYEACKALLDNFANREITDHMDRLPRDVASERLHHDIVRLLDEHVPRSPQMLSMTPQAMIGSPPPGQQQPQLITQPTVISAGNGGNNGNGNASGKQSNQTAKQKAAKKAKLIEGSPDNGLDATGSLRRKASSKKTSAASKKAANLNGLNPGQLTGGVSGVPGVPPTNSAAQAAAAAAAAVAAMSHELEGSPVGVGMGGNLPSPYDTSSMYSNAMAAPLANGNPNTGAKQPPSYEDCIKNAQSMQSLQGNGLDMIKLDNYAYSMGSPFQQELLNGQGLGMNGNGQRNGVGPGVLPGGLCGMGGLSGAGNGNSHEQGLSPPYSNQSPPHSVQSSLALSPHAYLGSPSPAKSRPSLPTSPTHIQAMRHATQQKQFGGSNLNSLLGGANGGGVVGGGGGGGGGVGQGPQNSPVSLGIISPTGSDMGIMLAPPQSSKNSAIMQTISPQQQQQQQQQQQQQHQQQQQQQQQQQQQQQQQLGGLEFGSAGLDLNGFCGSPDSFHSGQMNPPSIQSSMSGSSPSTNMLSPSSQHNQQAFYQYLTPSSQHSGGHTPQHLVQTLDSYPTPSPESPGHWSSSSPRSNSDWSEGVQSPAANNLYISGGHQANKGSEAIYI
notes: domain: entire intracellular domain; also called intracellular Notch
As for B1, the binding result in assay [1] is recorded as “binds”.

B2: Mip6 two-hybrid clone, amino-terminally truncated, fused to the E. coli B42 transactivation domain encoded by pJG4-5 (other, not shown: large carriers)
chain: PKTKQSTFVVSPKPEPKSPAVAFLQPSIPLRSSNQPQTVVGSSSTGRKPLNVGLTMEWTKKKFFSAASGIPQRRQNQIKQPYANIVSPIRTYTQKSGTAPLMSTFRPTSSDMLSTLAISELEQESRLCHPKALFATKDETPKSSEAESLIINGIDSAADLLPKKAYISSEIKHVVDERTPLPMPKVPQIQKYLNSAVEPTVMRHDGKMKMPGEAVRNPSSSHIPRRANHSLADLSLASGDVSLYTIRDAQKF
In the case of B2, in assay [2], the binding result is recorded as “binds”.
